We go through 15 molecules from patent US20220119472A1 (ORIONIS BIOSCIENCES, published 2022).

Assay [1] addresses T1, recombinant His6-tagged extracellular domain of human Clec4C (C-type lectin domain family 4, member C) (human, UniProt Q8WTT0 44-213).
T1 construct: Same antigen for immunisation, panning and ELISA; also called His-Clec4C(EC); pMET7-SIgK-His-Clec4C(EC)
T1 sequence: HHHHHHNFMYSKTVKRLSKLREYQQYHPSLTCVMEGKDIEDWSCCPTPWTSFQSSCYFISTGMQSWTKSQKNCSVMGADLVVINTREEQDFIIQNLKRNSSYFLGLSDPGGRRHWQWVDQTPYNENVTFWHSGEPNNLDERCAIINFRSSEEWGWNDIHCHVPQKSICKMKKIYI
Nature of the assay: ELISA, antigen-coated vs uncoated blocked wells. From the text:
(§1) In total, 190 colonies from rounds 1 and 2 were randomly selected and analyzed by ELISA for the presence of antigen-specific VHH in their periplasmic extracts (ELISA using crude periplasmic extracts from TG1 cultures including soluble VHH). The antigen used for ELISA screening was the same as the one used for immunization, using uncoated blocked wells as negative control.
For orientation: In an ELISA, binding on a coated surface is turned into a signal by an enzyme label.

The target in assay [2] is T1, recombinant His6-tagged extracellular …. Briefly: ELISA, TG1 periplasmic extract on coated antigen.
Description: as §1

B1: 1CL56 (VHH)
VHH: QVQLQESGGGLVQPGGSLTLSCGASGFDFSDYVMYWLRQAPGKGLQWVSSINASGVRTYYVDALKGRFTISRDNAKNTLYLQIDDLKPEDTGLYYCARVGQAPMYFGVDFWGNGTQVTVSS
notes: pMECS VHH-HA-His6; TG1 periplasmic extract
Turning to B1, the ELISA ratio coated/uncoated in assay [1] came to 4.82. Moreover, the ELISA coated in assay [2] stood at 3.89.

B2: 2CL56 (VHH)
VHH: QVQLQESGGGSVQAGDSLTLSCIASGRTFSSLAMGWFRQAPGKEREFVAAINWSGDSTYYSDSMKGRLTMSRDNAKNTVFLQMNSLEPEDTAVYVCAADASGYGSAWPDRYDYWGQGTQVTVSS
notes: as for B1
Consider B2, for which the ELISA ratio coated/uncoated in assay [1] was found to be 4.72. Further, the ELISA coated in assay [2] came to 0.999.

B3: 1CL81 (VHH)
VHH: QVQLQESGGGLVQAGNSLKLSCAASGRNLAYYVMGWFRQAPGREREPVATLTRGGDDTYCADSVKGRFTISSDNAKNTVYLQMNNLKPEDTAIYTCAARLAVLSSNTYCSGLWDYWGQGTQVTVSS
notes: as for B1
As to B3, the ELISA ratio coated/uncoated in assay [1] was 4.72. Further, the ELISA coated in assay [2] stood at 1.12.

B4: 2CL16 (VHH)
VHH: QVQLQESGGGLVQPGGSLRLSCAASGDTFSNYAMGWFRQAPGKAREFVAAISRSAGSTYHVDSVKGRFTISRDNAMNTVYLQMNSLQPEDTAHYYCAARLTFNLIDYYTAETRYTYWGQGTQVTVSS
notes: as for B1
For B4, the ELISA ratio coated/uncoated in assay [1] was determined as 14.1. Further, the ELISA coated in assay [2] was 2.03.

B5: 2CL40 (VHH)
VHH: QVQLQESGGGLVQTGGSLRVSCAASGRSISNYNMGWFRQPPGKEREIVGSIRWDGDSTYYADSVKGRFTISRDNTKNTVYLQMNSLKSEDTADYYCAATVSSFDESKNPRWYPYWGQGTQVTVSS
notes: as for B1
For the molecule B5, the ELISA ratio coated/uncoated in assay [1] came to 13.3. In assay [2], the ELISA coated came out at 3.11.

B6: 2CL46 (VHH)
VHH: QVQLQESGGGLVQAGGSLRLSCAVSGRTFSSYAMGWFRQARGKEREFVAAVEWSSGSTFYTDSVKGRFAISRDIAKNTVYLQMNSLKPEDTAVYYCAGDHTGKLVFSKTSDYWGQGTQVTVSS
notes: as for B1
On to B6, for which the ELISA ratio coated/uncoated in assay [1] stood at 4.82. For the same molecule, the ELISA coated in assay [2] was 3.3.

B7: 2CL57 (VHH)
VHH: QVQLQESGGGLVQAGGSLKLSCAASGRTFSSYAMGWFRQAPGKERDFVAVISWRNNTYYADSVKGRFTISRDNAKNTVHLQMNSLKSEDTAVYYCAAAGLGAVVAGMSDYDYWGQGTQVTVSS
notes: as for B1
Turning to B7, the ELISA ratio coated/uncoated in assay [1] is 4.38. In addition, the ELISA coated in assay [2] is 0.922.

B8: 2CL65 (VHH)
VHH: QVQLQESGGGLVQPGGSLRLSCAASGRIFSINAMGWYRQAPGKQRELVAVISRSGISNYVDSVKGRFTISRDNAKNTVYLQMNSLNPEDTADYYCNADVLLTFNKREDSWGQGTQVTVSS
notes: as for B1
For B8, the ELISA ratio coated/uncoated in assay [1] amounted to 9.33. For the same molecule, in assay [2], the ELISA coated stood at 1.72.

B9: 2CL81 (VHH)
VHH: QVQLQESGGGLVQAGDSLKLSCAASGRTFSTYAMGWFRQAPGKERDVVAAIATNGGTTYYVDSVKGRFTISRDNAQNRVYLQMNSLKPEDTAIYYCAARLSFGSGYYTNKLNYAYWGQGTQVTVSS
notes: as for B1
As to B9, the ELISA ratio coated/uncoated in assay [1] was determined as 8.32. Besides, the ELISA coated in assay [2] came to 3.69.

B10: 2CL15 (VHH)
VHH: QVQLQESGGGLVQPGGSVRLSCAASVFTLNNFIMSWVRQAPGKGLERVSDINMVGITDYSDPVKGRFTISRDNKQNTVYLQGNTLKPEDTAVYFCAAGRPIGLYYPSPRIRDYNDWGQGTQVTVSS
notes: as for B1
For B10, in assay [1], the ELISA ratio coated/uncoated was found to be 12.8. Also, the ELISA coated in assay [2] came to 3.9.

B11: 2CL34 (VHH)
VHH: QVQLQESGGGLVQAGGSLRLSCAASGRTFTNYAMGWFRQAPGKEREFVATISRSGSMPYYADSVKGRFTISRDNAKNMVYLQMNSLKPEDTAVYYCAANVLVTTTRLDQYDSWGQGTQVTVSS
notes: as for B1
For the molecule B11, the ELISA ratio coated/uncoated in assay [1] turned out to be 3.83. Also, the ELISA coated in assay [2] amounted to 2.8.

B12: 2CL66 (VHH)
VHH: QVQLQESGGGLVQAGGSLRLSCAASERTFTNYAMGWFRQGPGKDRAFVAAISRSGSSTSYADSVKGRFTISRDNAENILYLQMNSLKPEDTAVYYCAAAPLVLKTTPGAYNYWGQGTQVTVSS
notes: as for B1
For the molecule B12, the ELISA ratio coated/uncoated in assay [1] is 18.6. Moreover, the ELISA coated in assay [2] worked out at 2.04.

B13: 1CL88 (VHH)
VHH: QVQLQESGGGLVQAGGSLRLSCAASGRIFSNSAMGWFRQVLGKEREFVAAISENSSILYYTASVKGRFTISRDNDKNTVYLQMTSLKAEDTAVYYCAGYGSTTIRTTTRPTKWGQGTQVTVSS
notes: as for B1
With B13, in assay [1], the ELISA ratio coated/uncoated was found to be 3.42. Further, the ELISA coated in assay [2] came out at 4.

B14: 2CL29 (VHH)
VHH: QVQLQESGGGLVQPGDSLRLSCTASERTFTNYAMAWFRQAPGKERDVLATISRSGSSTFYAESVKGRFTISRDNTKNTVYLQMNSLEPEDTAVYYCAARPLVPSEDPDNYNYWGQGTQVTVSS
notes: as for B1
Regarding B14, the ELISA ratio coated/uncoated in assay [1] was 6.84. Moreover, the ELISA coated in assay [2] was found to be 2.24.

B15: 2CL91 (VHH)
VHH: QVQLQESGGGLVQAGDSLRLSCTASERTFSNYAMGWFRLAPGKERKFVAAISTSGGTTDYVDSVKGRFTISRDNAKNTVYLQMNSLKPEDTAVYYCAARLDFSSTDLYTTAPRYPYWGQGTQVTVSS
notes: as for B1
In the case of B15, the ELISA ratio coated/uncoated in assay [1] turned out to be 5.56. The ELISA coated in assay [2] was found to be 4.
